First the molecules themselves.
B2: Trypanosoma brucei centrin5 (TbCentrin5), purified, His-tag removed (natural protein, UniProt Q382E7 1-186, looked up)
chain: MEGPKLKGAARCAAVEKVESKTQLSIAISEKHKAQLREAFDFFDSDGTGRINAQDVKVAFCALGYEVGKEELTHLLRQVGASTTGVIDFNDFYSVIIAKIMQRENRSEAIRAFKLIDTGEKGYINVDDLRPIAASLQMNLTDDELAEMVLFAHPSATYSKADTEMKDPLTVSEEEFLKLMNRAHVY
notes: TbCentrin5 of Trypanosoma brucei, Tb927.11.13900, full-length gene amplified from genomic DNA; 186 amino acids, about 20 kDa calculated; also called centrin5 of T. brucei; Tb927.11.13900; source: E. coli BL21 (DE3), purified (TEV digestion, gel filtration Sephadex G-75); not shown: His-tag, N-terminal, cleaved

Series [1] deals with B2. The experiment in a line: ITC; iTC200, 16 °C, 20 mM Tris/HCl pH 7.0, 100 mM NaCl; 50 uM TbCentrin1/2/3/4 in the cell, 0.5 mM TbCentrin5 in the syringe; without EGTA treatment. The conditions noted are these: both partners purified.
Series [2] has as its target T1, TbCentrin3, purified for ITC (Trypanosoma brucei, UniProt Q38AA2 1-165).
T1 chain: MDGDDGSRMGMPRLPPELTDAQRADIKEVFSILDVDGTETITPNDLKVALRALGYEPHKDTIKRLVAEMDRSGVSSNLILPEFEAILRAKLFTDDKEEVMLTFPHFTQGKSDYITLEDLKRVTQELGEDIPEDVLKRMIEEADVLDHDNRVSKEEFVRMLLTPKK
The experiment in a line: ITC.

In series [3] the target is T2, TbCentrin4, purified for ITC (Trypanosoma brucei, UniProt Q57WF6 1-149).
T2 chain: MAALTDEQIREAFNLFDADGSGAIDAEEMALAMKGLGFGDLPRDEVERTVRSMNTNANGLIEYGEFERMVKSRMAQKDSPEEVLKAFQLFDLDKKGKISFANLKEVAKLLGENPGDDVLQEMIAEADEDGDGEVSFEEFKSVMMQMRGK
The experiment in a line: ITC.

Series [4] deals with the molecule itself. Nature of the series: SEC; gel filtration on Superdex G-75 column, elution at about 66 mL corresponding to about 36 kDa; SDS/PAGE showed no disulfide bond.

B1: TbCentrin1, purified for ITC (natural protein, Trypanosoma brucei, UniProt Q584G1 1-182, looked up)
chain: MSSSRPATGNRLAVPIRTNLPVPAPRKRRFELTDEQRQEIREAFELFDSDKNGLIDAHEMKVSMRALGFDAKKEEVLRMMQDCAARDQHNNPLMDLAGFTDLMTERFAQRDPRQEMIKAFQLFDENNTGKISLRSLRRVARELGENMTDEELQAMIDEFDTDQDGEINLDEFLAIMLEDDDY
notes: TbCentrin1 of Trypanosoma brucei, Tb927.04.2260; Cloning, tag and host of this protein are not described; also called Tb927.04.2260; source: purified and equilibrated as above (gel filtration Sephadex G-75)
In series [1], B1 showed a Kd of 105 µM.
Consider B2, for which the Kd was 56 µM in series [2] and 16 µM in series [3]. For the same molecule, the “stoichiometry N” value in series [4] stood at 2.

B3: TbCentrin3, purified for ITC (natural protein, Trypanosoma brucei, UniProt Q38AA2 1-165, looked up)
chain: MDGDDGSRMGMPRLPPELTDAQRADIKEVFSILDVDGTETITPNDLKVALRALGYEPHKDTIKRLVAEMDRSGVSSNLILPEFEAILRAKLFTDDKEEVMLTFPHFTQGKSDYITLEDLKRVTQELGEDIPEDVLKRMIEEADVLDHDNRVSKEEFVRMLLTPKK
notes: TbCentrin3 of Trypanosoma brucei, Tb927.10.8710; Cloning, tag and host of this protein are not described; also called Tb927.10.8710; source: purified and equilibrated as above (gel filtration Sephadex G-75)
In series [1], B3 yielded a Kd of 52 µM.

B4: TbCentrin4, purified for ITC (natural protein, Trypanosoma brucei, UniProt Q57WF6 1-149, looked up)
chain: MAALTDEQIREAFNLFDADGSGAIDAEEMALAMKGLGFGDLPRDEVERTVRSMNTNANGLIEYGEFERMVKSRMAQKDSPEEVLKAFQLFDLDKKGKISFANLKEVAKLLGENPGDDVLQEMIAEADEDGDGEVSFEEFKSVMMQMRGK
notes: TbCentrin4 of Trypanosoma brucei, Tb927.07.3410; Cloning, tag and host of this protein are not described; also called TbCentirn4; Tb927.07.3410; source: purified and equilibrated as above (gel filtration Sephadex G-75)
The molecule B4 returned a Kd in series [1] of 12 µM.

The values above are taken from PMC6668372, “Trypanosoma brucei centrin5 is enriched in the flagellum and interacts with other centrins in a calcium‐dependent manner” (FEBS Open Bio, 2019).
